The target in the data set is T1, His-RAX (S130P) (Mus musculus (cDNA from L929 cells), UniProt Q9WTX2 1-313, S130P).
T1 sequence: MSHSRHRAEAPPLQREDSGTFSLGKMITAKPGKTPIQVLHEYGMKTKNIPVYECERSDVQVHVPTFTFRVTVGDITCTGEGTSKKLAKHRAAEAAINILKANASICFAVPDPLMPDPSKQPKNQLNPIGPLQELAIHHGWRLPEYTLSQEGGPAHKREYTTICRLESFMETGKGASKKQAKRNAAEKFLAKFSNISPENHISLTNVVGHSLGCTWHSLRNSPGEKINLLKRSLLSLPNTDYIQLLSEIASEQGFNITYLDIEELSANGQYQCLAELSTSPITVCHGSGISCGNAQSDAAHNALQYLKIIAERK
Kind of data set: EMSA; 20 mM Tris pH 7.5, 50 mM KCl, 2 mM MgCl2, 2 mM MnCl2, 5% glycerol; EMSA 15 min at room temperature, 5% acrylamide gel in 0.25x TBE run cold. The conditions noted are these: protein: recombinant; blunt. On the technique in general: Mobility shift assays separate free from complexed probe on a gel.

B1: 30-bp dsRNA probe (dsRNA)
RNA 1: GGGAACAAAAGCUGGGUACCGGGCCCCCCC
RNA 2: GGGGGGGCCCGGUACCCAGCUUUUGUUCCC
Take B1: the binding result was “no binding”.

The values above are taken from paper PMC3237451, “Missense Mutation in the Second RNA Binding Domain Reveals a Role for Prkra (PACT/RAX) during Skull Development”.
